Target: wild-type KRAS4b GTPase domain (1-169), GMPPNP-bound (human) (UniProt P01116)
Experiment: ITC

“NF1-GRD (GAP-related domain of neurofibromin 1) (from UniProt P21359-2 1198-1530) (domain or fragment)” showed a Kd of 1000 nM.

Source: article doi:10.1101/737098
